The results in this text go back to patent publication US20220040304A1, “A COMPOSITION FOR CANCER CELL DEATH AND ITS USE” (Industry-University Cooperation Foundation Hanyang …, priority 2018, published 2022).

In one assay the test system is MCF-7 cells. In words: Cell death according to presence of serum and protein treatment time (Co-h). The settings on record: MCF-7, protein 10 μM, serum-free media or serum-containing media, Co-h 150 μM. It is filed as cell-based, human. The protocol: MCF-7 cells were seeded at 5×10^5 cells/mL in a 96-well plate (SPL Cell Culture Plate, 96 well (SPL, Cat #30096)), and cultured at 37° C. for 24 hours (overnight). After the culture for 24 hours, the cells were washed with FBS & Phenol red-free media (RPMI, Well Gene., Korea, Cat #LM011-02), and 100 μL of an FBS-free medium or FBS media (RPMI), containing purified protein (final concentration: 10 μM), was added, followed by reaction at 37° C. over time.
After the reaction, the cells were washed with FBS & Phenol red-free media (RPMI), 100 μL of FBS & Phenol red-free media (RPMI) containing a Co-h substrate solution (final concentration: 150 μM) and SYTOX Green (final concentration: 261 nM) staining DNA of dead cells was added, followed by reaction at 37° C. for 30 minutes.
After the reaction, 10 μL of DAPI staining DNA of live cells was added, followed by reaction for 5 minutes. Cell death was confirmed by observing KillerRed, SYTOX Green and DAPI fluorescence using a confocal microscope.

For a further assay, the system named is MDA-MB-231 cancer cells. In words: IVIS in vivo imaging and tumor size in mice with MDA-MB-231 tumors. The arrangement: species or system mouse. The settings on record: NOD-SCID mice, MDA-MB-231 tumor, protein injected into tumor (50 μM), Co-h 5 μg/50 μL subcutaneously. The protocol: MDA-MB-231 cancer cells (ATCC) were cultured in RPMI (Corning Inc.) containing 5% FBS (Corning Inc.) and 1% penicillin and streptomycin. Mice used in this experiment were 7-week-old NOD-SCID species, and purchased from Central Lab Animal Inc., and then the mice were raised without diet restriction for 2 weeks for acclimation at this research institute. The weight of a female mouse ranged from 17 to 23 g.
This animal experiment was conducted after approval by the Institute of Animal Care and Use Committee (IACUC) of the Asan Medical Center in compliance with the guidelines. 1×10^6 cells/50 μL of MDA-MB-231 cells diluted in RPMI and 50 μL of Matrigel (Corning Inc.) were subcutaneously injected into the adipose body of a NOD-SCID mouse. On day 9 after cell injection, a protein containing 20 μL of Matrigel (RLuc8.6-KR-LP, final concentration: 50 μM) was injected into a tumor when the tumor size of the mouse was approximately 40 mm^2. After respiratory anesthesia of the mouse, fluorescence emitted from the protein was imaged using an IVIS spectrum (Xenogen Inc.). For BL-PDT, Co-h (5 μg/50 μL, Nanolight Technology.) was diluted in 1×PBS (Corning) and then subcutaneously injected. The light emission from Co-h was imaged after the IVIS spectrum was set to 5 seconds.

Entries after “also recorded” stand apart in the source; their conditions may differ.

B1: RLuc8.6-KR-LP: fusion protein of RLuc8.6, KillerRed and lead peptide WLEAAYQRFL, 71 kDa (protein)
chain: MRGSHHHHHHGMASMTGGQQMGRDLYDDDDKDPMASKVYDPEQRKRMITGPQWWARCKQMNVLDSFINYYDSEKHAENAVIFLHGNATSSYLWRHVVPHIEPVARCIIPDLIGMGKSGKSGNGSYRLLDHYKYLTAWFELLNLPKKIIFVGHDWGSALAFHYAYEHQDRIKAIVHMESVVDVIESWMGWPDIEEELALIKSEEGEKMVLENNFFVETLLPSKIMRKLEPEEFAAYLEPFKEKGEVRRPTLSWPREIPLVKGGKPDVVQIVRNYNAYLRASDDLPKLFIESDPGFFYNAIVEGAKKFPNTEFVKVKGLHFLQEDAPDEMGKYIKSFVERVLKNEQEFGGGMLCCMRRTKQVEKNDEDQKISEGGPALFQSDMTFKIFIDGEVNGQKFTIVADGSSKFPHGDFNVHAVCETGKLPMSWKPICHLIQYGEPFFARYPDGISHFAQECFPEGLSIDRTVRFENDGTMTSHHTYELDDTCVVSRITVNCDGFQPDGPIMRDQLVDILPNETHMFPHGPNAVRQLAFIGFTTADGGLMMGHFDSKMTFNGSRAIEIPGPHFVTIITKQMRDTSDKRDHVCQREVAYAHSVPRITSAIGSDEDGGGWLEAAYQRFL
modifications: pRSET-RLuc8.6-KillerRed-Lead peptide
B1: the “protein treatment time from which the number of cells stained with SYTOX Green increased” value in the assay with MCF-7 cells was about 4 h. In addition, the tumor size result with MDA-MB-231 cancer cells is given as “the smallest; also recorded: tumor growth is inhibited”.
